Numbering of substitutions follows the chain as printed. One block for each binder: values may come before it.
Columns and labels:
[1] = target: T1, soluble mouse IL-31 receptor (mouse, UniProt Q8K5B1 19-499); assay: SPR Biacore T100, antibody on protein A/G chip, soluble mouse IL-31 receptor analyte, pH 7.4, 25 C
T1 sequence (looked up): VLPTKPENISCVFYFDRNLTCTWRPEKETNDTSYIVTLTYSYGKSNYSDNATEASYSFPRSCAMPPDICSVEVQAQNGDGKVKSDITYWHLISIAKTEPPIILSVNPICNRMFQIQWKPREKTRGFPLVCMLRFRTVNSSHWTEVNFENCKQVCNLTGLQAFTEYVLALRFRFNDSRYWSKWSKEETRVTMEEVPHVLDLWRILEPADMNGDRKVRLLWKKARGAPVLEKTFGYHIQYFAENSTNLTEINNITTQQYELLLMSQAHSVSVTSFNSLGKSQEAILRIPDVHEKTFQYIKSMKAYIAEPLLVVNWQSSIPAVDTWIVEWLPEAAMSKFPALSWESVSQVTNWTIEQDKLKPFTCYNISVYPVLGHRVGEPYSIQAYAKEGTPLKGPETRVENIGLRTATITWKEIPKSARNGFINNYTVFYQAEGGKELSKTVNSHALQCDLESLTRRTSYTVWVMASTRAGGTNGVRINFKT
Protocol: (§1) Kinetic analysis of antigen-antibody reactions at pH 5.5 and pH 7.4 was carried out using a Biacore T100™ surface plasmon resonance system (GE Healthcare) for the two types of antibodies prepared as mentioned above: Anti-IL31R wild type and Anti-IL31R clone 1 (buffer: DPBS(−) (pH 7.4 or pH 5.5), 150 mM NaCl, 0.01% TWEEN® 20 (polyoxyethelene sorbitan monolaurate), 0.02% NaN₃). The antibodies were bound to a sensor chip on which recomb-protein A/G (Pierce) was immobilized by amine coupling, and then the soluble mouse IL-31 receptor (prepared according to the method described in WO 2007/142325) adjusted to an appropriate concentration was injected therein as an analyte. All the measurements were carried out at 25° C. Association rate constants kₐ (1/Ms) and dissociation rate constants kd (1/s) were calculated using Biacore T100™ Evaluation Software (GE Healthcare), and dissociation constants KD (M) were calculated based on those values (Table 16). Furthermore, the ratio of affinity at pH 5.5 and pH 7.4 was calculated for each clone to evaluate the pH-dependent binding.

[2] = target: T1, soluble mouse IL-31 receptor; assay: SPR Biacore T100, antibody on protein A/G chip, soluble mouse IL-31 receptor analyte, 25 C, ratio of pH 5.5 to pH 7.4
Protocol: as §1

human IL-6 (Toray) [3] = target: T2, human IL-6 (Toray) (human, UniProt P05231 30-212); assay: SPR Biacore T100, antibody on protein A/G chip, human IL-6 analyte, 37 C, ratio of pH 5.5 to pH 7.4
T2 construct: also called human interleukin-6
Protocol: (§2) Kinetic analysis of antigen-antibody reactions at pH 5.5 and pH 7.4 was carried out using a Biacore T100™ surface plasmon resonance system (GE Healthcare) for the three types of antibodies prepared as mentioned above: Anti-IL6 wild type, Anti-IL6 clone 1, and Anti-IL-6 clone 2 (buffer: DPBS(−) (pH 7.4 or pH 5.5), 150 mM NaCl). The antibodies were bound to a sensor chip on which recomb-protein A/G (Pierce) was immobilized by amine coupling, and then human IL-6 (Toray) adjusted to an appropriate concentration was injected on the chip as an analyte. All the measurements were carried out at 37° C. Association rate constants kₐ (1/Ms) and dissociation rate constants kd (1/s) were calculated using Biacore T100™ Evaluation Software (GE Healthcare), and dissociation constants KD (M) were calculated based on those values (Table 14). Furthermore, the ratio of affinity at pH 5.5 and pH 7.4 was calculated for each clone to evaluate the pH-dependent binding.

human IL-6 (Toray) [4] = target: T2, human IL-6 (Toray); assay: SPR Biacore T100, antibody on protein A/G chip, human IL-6 analyte, pH 5.5, 37 C
Protocol: as §2

human IL-6 (Toray) [5] = target: T2, human IL-6 (Toray); assay: SPR Biacore T100, antibody on protein A/G chip, human IL-6 analyte, pH 7.4, 37 C
Protocol: as §2

human IL-6 (Toray) [6] = target: T2, human IL-6 (Toray); assay: SPR Biacore T100, antibody on protein A/G chip, human IL-6 analyte, 37 C
Protocol: as §2

B2: Anti-IL6 wild type (antibody, human IgG1, kappa, V domains shown)
VH: EVQLVESGGKLLKPGGSLKLSCAASGFTFSSFAMSWFRQSPEKRLEWVAEISSGGSYTYYPDTVTGRFTISRDNAKNTLYLEMSSLRSEDTAMYYCARGLWGYYALDYWGQGTSVTVSS
VL: QIVLIQSPAIMSASPGEKVTMTCSASSSVSYMYWYQQKPGSSPRLLIYDTSNLASGVPVRFSGSGSGTSYSLTISRMEAEDAATYYCQQWSGYPYTFGGGTKLEIKR
notes: Antibody of WO 2004/039826, rebuilt and tested here; also called anti-IL-6 antibody including the H chain (WT) and L chain (WT)
KD (pH 5.5)/KD (pH 7.4) (human IL-6 (Toray) [3]): 0.8
Kd (human IL-6 (Toray) [4]): 0.0161 nM
koff (human IL-6 (Toray) [4]): 0.000245 s⁻¹
kon (human IL-6 (Toray) [4]): 1.52e+07 M⁻¹ s⁻¹
Kd (human IL-6 (Toray) [5]): 0.0191 nM
koff (human IL-6 (Toray) [5]): 0.000391 s⁻¹
kon (human IL-6 (Toray) [5]): 2.05e+07 M⁻¹ s⁻¹

B4: Anti-IL-6 clone 2 (antibody, human IgG1, kappa, V domains shown)
VH: B2 VH with F32H, Y60H, D62H, Y103H
VL: B2 VL with N52H, L53H, Q89H, Y93H
notes: H chain (c1) / L chain (c2)
KD (pH 5.5)/KD (pH 7.4) (human IL-6 (Toray) [3]): 13.5
Kd (human IL-6 (Toray) [4]): 3.98 nM
koff (human IL-6 (Toray) [4]): 0.011 s⁻¹
kon (human IL-6 (Toray) [4]): 2.76e+06 M⁻¹ s⁻¹
pH-dependent binding ability relative to WT (human IL-6 (Toray) [6]): > 10 fold
Kd (human IL-6 (Toray) [5]): 0.294 nM
koff (human IL-6 (Toray) [5]): 0.00263 s⁻¹
kon (human IL-6 (Toray) [5]): 8.96e+06 M⁻¹ s⁻¹

Next, values leading:

Kd [1]: 23 nM
koff [1]: 0.0034 s⁻¹
kon [1]: 140000 M⁻¹ s⁻¹
KD (pH 5.5)/KD (pH 7.4) [2]: 3.2
B1: Anti-IL31R wild type (antibody, human IgG1, lambda, V domains shown)
VH: not shown
VL: LPVLTQPPSVSVAPGQTARITCGGNNIGSKTVYWYQQEPGQAPVLVVYDDTDRPAGIPERFSGANSGNTATLTISRVEAGDEADYYCQVWDSSTDHGVFGGGTKLTVLG
notes: Antibody of WO 2007/142325, rebuilt and tested here; also called anti-IL-31 receptor antibody including the H chain (WT) and L chain (WT)

KD (pH 5.5)/KD (pH 7.4) (human IL-6 (Toray) [3]): 10.3
Kd (human IL-6 (Toray) [4]): 4.52 nM
koff (human IL-6 (Toray) [4]): 0.00926 s⁻¹
kon (human IL-6 (Toray) [4]): 2.05e+06 M⁻¹ s⁻¹
pH-dependent binding ability relative to WT (human IL-6 (Toray) [6]): > 10 fold
Kd (human IL-6 (Toray) [5]): 0.438 nM
koff (human IL-6 (Toray) [5]): 0.00471 s⁻¹
kon (human IL-6 (Toray) [5]): 1.07e+07 M⁻¹ s⁻¹
B3: Anti-IL6 clone 1 (antibody, human IgG1, kappa, V domains shown)
VH: B2 VH with F32H, Y60H, D62H, Y103H
VL: B2 VL with L53H, Q89H, Y93H
notes: H chain (c1) / L chain (c1)
